Laboratory results from publication PMC6746701, “A phyB-PIF1-SPA1 kinase regulatory complex promotes photomorphogenesis in Arabidopsis” (Nature Communications, 2019).
Residue numbers refer to the chain shown, from its start.

Legend:
[1] = molecular target: T1, strep-tagged full-length mSPA1 (SPA1 R517E) (Arabidopsis, UniProt Q9SYX2 1-1029, R517E); test: pull-down; 2 µg GST-PIF1 on GST agarose beads, 1 µg SPA1 or mSPA1; 50 mM Tris pH 7.5, 150 mM NaCl, 1 mM EDTA, 0.1% Tergitol NP-40, 0.5 mM DTT; 2 h at 4 °C; Coomassie staining; conditions: both partners purified
T1 construct: SPA1, Arabidopsis, full length, with the kinase-domain point mutation R517E; Same construct as m1 apart from R517E; also called mSPA1-strep; mutant SPA1; source: Pichia pastoris, purified (Strep-Tactin Sepharose); not shown: Strep tag, C-terminal, kept
T1 sequence (looked up): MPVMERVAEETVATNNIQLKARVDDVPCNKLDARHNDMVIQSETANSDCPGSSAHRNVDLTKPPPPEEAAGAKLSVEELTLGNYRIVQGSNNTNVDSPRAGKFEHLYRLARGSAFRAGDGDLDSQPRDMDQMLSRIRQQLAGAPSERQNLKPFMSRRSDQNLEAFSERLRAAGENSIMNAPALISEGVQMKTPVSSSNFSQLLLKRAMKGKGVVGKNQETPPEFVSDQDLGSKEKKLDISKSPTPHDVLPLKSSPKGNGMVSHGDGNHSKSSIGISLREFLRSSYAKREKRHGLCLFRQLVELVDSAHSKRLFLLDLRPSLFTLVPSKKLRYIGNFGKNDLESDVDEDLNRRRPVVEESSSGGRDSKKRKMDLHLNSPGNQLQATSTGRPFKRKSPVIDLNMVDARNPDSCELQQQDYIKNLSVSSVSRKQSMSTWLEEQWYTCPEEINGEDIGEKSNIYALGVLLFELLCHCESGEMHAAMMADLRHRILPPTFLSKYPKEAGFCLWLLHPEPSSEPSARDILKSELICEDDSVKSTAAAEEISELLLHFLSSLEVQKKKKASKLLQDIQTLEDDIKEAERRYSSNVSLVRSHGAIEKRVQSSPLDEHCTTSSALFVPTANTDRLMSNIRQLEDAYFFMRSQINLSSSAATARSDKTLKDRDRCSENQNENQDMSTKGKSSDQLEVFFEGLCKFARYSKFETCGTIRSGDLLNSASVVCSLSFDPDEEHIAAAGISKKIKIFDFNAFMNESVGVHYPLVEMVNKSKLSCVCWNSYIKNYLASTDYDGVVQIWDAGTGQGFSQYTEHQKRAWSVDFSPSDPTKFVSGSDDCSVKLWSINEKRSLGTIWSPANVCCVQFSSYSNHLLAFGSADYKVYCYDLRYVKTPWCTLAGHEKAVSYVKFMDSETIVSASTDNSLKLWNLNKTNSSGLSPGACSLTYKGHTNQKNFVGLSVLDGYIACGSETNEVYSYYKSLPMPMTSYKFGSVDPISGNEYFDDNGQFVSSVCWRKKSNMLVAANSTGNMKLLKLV

[2] = molecular target: T2, strep-tagged full-length SPA1 (SUPPRESSOR OF PHYA-105 1) (Arabidopsis, UniProt Q9SYX2 1-1029); test: as above; conditions: both partners purified
T2 construct: 3x Flag was cloned into the SnaBI site of pPIC3.5K SPA1-strep; also called SPA1-strep; wild type SPA1; source: Pichia pastoris GS115, purified (Strep-Tactin Sepharose); not shown: Strep tag, C-terminal, kept
T2 sequence (looked up): T1 sequence (looked up) with E517R

binding result [1]: binds | binding result [2]: binds
B1: GST-PIF1-strep (natural protein, Arabidopsis, UniProt Q8GZM7 1-478, looked up)
chain: MHHFVPDFDTDDDYVNNHNSSLNHLPRKSITTMGEDDDLMELLWQNGQVVVQNQRLHTKKPSSSPPKLLPSMDPQQQPSSDQNLFIQEDEMTSWLHYPLRDDDFCSDLLFSAAPTATATATVSQVTAARPPVSSTNESRPPVRNFMNFSRLRGDFNNGRGGESGPLLSKAVVRESTQVSPSATPSAAASESGLTRRTDGTDSSAVAGGGAYNRKGKAVAMTAPAIEITGTSSSVVSKSEIEPEKTNVDDRKRKEREATTTDETESRSEETKQARVSTTSTKRSRAAEVHNLSERKRRDRINERMKALQELIPRCNKSDKASMLDEAIEYMKSLQLQIQMMSMGCGMMPMMYPGMQQYMPHMAMGMGMNQPIPPPSFMPFPNMLAAQRPLPTQTHMAGSGPQYPVHASDPSRVFVPNQQYDPTSGQPQYPAGYTDPYQQFRGLHPTQPPQFQNQATSYPSSSRVSSSKESEDHGNHTTG
notes: source: E. coli BL21(DE3), purified (Strep-Tactin Sepharose); not shown: GST, N-terminal, kept; Strep tag, C-terminal, kept
